The values that follow come from US20260258115A1 (MAPP BIOPHARMACEUTICAL, published 2026).

Assay [1] deals with RSV postfusion F (postF), F ΔFP (Respiratory syncytial virus, UniProt P03420 26-513). Briefly: BLI, IgG on anti-human IgG sensor, 100 nM antigen.
Assay [2] deals with RSV prefusion F (preF), DS-Cav1 (Respiratory syncytial virus, UniProt P03420 26-513). Briefly: BLI, IgG on anti-human IgG sensor. In general terms: Biolayer interferometry detects binding as a change in optical thickness at a sensor tip.
In assay [3] the target is RSV F on RSV-A2 virus (Respiratory syncytial virus, RSV-A2, UniProt P03420 26-574). Description: cell-based or functional assay.
Assay [4] addresses RSV F on RSV subtype A virus (RSV-A2) (Respiratory Syncytial Virus, subtype A, …, UniProt P03420 26-574). Briefly: cell-based or functional assay.
The target in assay [5] is RSV F on RSV subtype B virus (mKate-RSV B 18537) (Respiratory Syncytial Virus, subtype B, …, UniProt P13843 26-574). Briefly: cell-based or functional assay.
The target in assay [6] is RSV postfusion F (postF), F ΔFP (Respiratory Syncytial Virus, UniProt P03420 26-513). Description: BLI, IgG on anti-human IgG sensor, 100 nM antigen, 1:1 fit.
Assay [7] addresses RSV prefusion F (preF), DS-Cav1 (Respiratory Syncytial Virus, UniProt P03420 26-513). Briefly: BLI, IgG on anti-human IgG sensor.
For assay [8], the target named is RSV F on RSV-A2 virus (Respiratory Syncytial Virus (RSV-A2), UniProt P03420 26-574). Briefly: cell-based or functional assay.

B1: ADI-41553 (antibody, V domains shown)
VH: EVQLVESETEVKKPGASVKVSCKASGYTFTKYGISWVRQAPGQGLEWMGWISAYNGNTMYPHKLLGRVTMTTDTSTSTAYMELRSLRSDDTAVYYCARDQTYYDFWSGYYTYWGQGTLVTVSS
VL: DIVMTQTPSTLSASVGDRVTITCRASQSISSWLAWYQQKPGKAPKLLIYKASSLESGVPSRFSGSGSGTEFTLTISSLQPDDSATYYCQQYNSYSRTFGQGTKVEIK
notes: also called Ab 835; Antibody Number 835
A word on the Kd: it is the free concentration of one partner at which half of the binding sites on the other are occupied at equilibrium, for simple one-to-one binding. Read a high Kd as lower affinity. B1 displayed a Kd in assay [1] of 0.804 nM. In addition, in assay [2], the binding result is reported as “no binding (tested: 100 nM antigen)”. Further, the “Neutralization IC50 (RSV subtype A)” value in assay [3] is greater than 25 µg/mL.

B2: ADI-41556 (antibody, V domains shown)
VH: EVQLLESGGGLVKPGGSLRLSCAASGFSFSSYSMHWVRQAPGKGLEWVSSISSSSTYIYYADSVKGRFTISRDNAKTSLFLQMNSLRAEDTAVYYCARDPYSSGWYWDWGQGTTVTVSS
VL: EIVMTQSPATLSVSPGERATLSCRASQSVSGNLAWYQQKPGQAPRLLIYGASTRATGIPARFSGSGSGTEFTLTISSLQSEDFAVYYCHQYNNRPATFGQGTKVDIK
Take B2: binding in assay [1] was put at a Kd of 2.28 nM. Besides, in assay [2], the binding result is “no binding (tested: 100 nM antigen)”. Also, in assay [3], the “Neutralization IC50 (RSV subtype A)” value is greater than 25 µg/mL.

B3: ADI-41805 (antibody, V domains shown)
VH: QVQLVQSGAEVKKPGESLKISCKASGYSFTSYWIAWVRQMPGKGLEWMGIIFPGDSDTRYSPSFQGQVTISADKSISTAYLQWSSLEASDTAMYYCAKSTTYYYYGLDVWGQGTTVTVSS
VL: QPVLTQPASVSGSPGQSITISCTGTSSDVGGYDYVSWYQQYPGKAPKLMIYEVSNRPLGVSNRFSGSRSGYTASLTISGLQAEDETNYYCSSYTSSRTWVFGGGTKLTVL
notes: also called Ab 914; Antibody Number 914
Consider B3, for which, in assay [1], the Kd was found to be 2 nM. In addition, in assay [2], the binding result is on record as “no binding (tested: 100 nM antigen)”. In addition, in assay [3], the “Neutralization IC50 (RSV subtype A)” value is greater than 25 µg/mL.

B4: ADI-14583 (antibody, V domains shown)
VH: QVQLVQSGAEVKEPGASVKVSCKASGYTFTNYGISWVRQAPGQGLEWLGWISAYNGNIHYAQKVQGRVTMTTDTSTSTGFMELRSLRSDDTAVYYCAREPPVIAAGDFQHWGQGTLVTVSS
VL: ETTLTQSPLSLPVTLGQPASISCRSSQSLVHSNGNTYLSWFQQRPGQSPRRLIYRVSNRDSGVPDRFSGSGSGTDFTLKISRVEAEDVGLYYCMQGTHWPPDFGQGTRLEIK
Consider B4, for which, in assay [4], the “Neutralization - RSV A2 IC50 (pM)” value came out at 125 pM and the “neut IC50 (ug/ml) subtype A (graham)” value was 0.05 µg/mL. Moreover, the “neut IC50 (ug/ml) subtype B (graham)” value in assay [5] amounted to 0.06 µg/mL.

B5: ADI-14334 (antibody, V domains shown)
VH: EVQLVESGGGLVKPGGSLRLSCAASGVTVSSYYMTWVRQAPGKGLEFISDISSSSTYTNYADSVKGRFTISRDNAKSSLYLQMNNLRAEDTAVYYCARLGITVTGVGYFDLWGRGTLVTVSS
VL: QPGLTQPPSVSGAPGQRVTISCTGSSSNIGAGYDVHWYQQLPGTAPKLLIHDNNNRPSGVPDRFSGSKSGTSASLAITGLQVEDEADYYCQSYDSSLSNYVFGTGTKLTVL
Take B5: in assay [4], the “Neutralization - RSV A2 IC50 (pM)” value came out at 189 pM and the “neut IC50 (ug/ml) subtype A (graham)” value was found to be 0.05 µg/mL. For the same molecule, the “neut IC50 (ug/ml) subtype B (graham)” value in assay [5] amounted to 0.11 µg/mL.

B6: ADI-41576 (antibody, V domains shown)
VH: QVTLKESGPTLVKPTQTLTLSCSFSGFSLSAYAVGVGWIRQPPGKALEWLALIYWDDDKRYSPSLETRLTITKDTSKNQVVLTMTKMDPVDTATYYCVYSYNGYYEYMDVWGNGTTVTVSS
VL: DIVMTQSPATLSLSPGERATLSCRASQSVSNYLAWYQQKPGQAPRLLISGASNRATGIPDRFSGSGSGTDFTLTITTPEPEDFAVYYCQQRNAWPRTFGQGTKVEIK
notes: also called Ab 851; Antibody Number 851
With B6, the Kd in assay [1] was 1.43 nM. Moreover, the binding result in assay [2] is listed as “no binding (tested: 100 nM antigen)”. Moreover, the “Neutralization IC50 (RSV subtype A)” value in assay [3] is greater than 25 µg/mL.

B7: ADI-41690 (antibody, V domains shown)
VH: QVQLVQSGAEVKKPGESLRISCKGSGYSFSSHWIGWVRQKPGKGLEWMGIIYPGDSDTRYSPSFQGHVTISADKSISTAYLRWSSLKASDTAIYYCAKRMVGDYYGMNLWGQGTTVTVSS
VL: EIVMTQSPSSLSASVGDRVTITCQASQDISNRLNWYQQKPGKAPKLLIYDASNLETGVPSRFSGSGSGTDFTFTISSLQPEDIATYFCQQYDYLLWFTFGPGTKVDIK
notes: also called Ab 893; Antibody Number 893
Regarding B7, the affinity in assay [1], expressed as Kd, was 8.78 nM. The binding result in assay [2] was “no binding (tested: 100 nM antigen)”. Moreover, the “Neutralization IC50 (RSV subtype A)” value in assay [3] is greater than 25 µg/mL.

B8: ADI-41574 (antibody, V domains shown)
VH: QITLKESGPTLVKPTQTLTLTCTFSGFSLSTSGVGVAWIRQPPGKALEWLALIYWDDDKRYSPSLKSRLTITKDTSKNQVVLTMTNMDPVDTATYYCAHSSVYTTPFDYWGQGSLVTVSS
VL: DIQLTQSPSTLSASVGDRVTITCRASQSISDWLAWYQQKPGKAPKLLIYKAFTLESGVPSRFSGSGSGTEFTLTISSLQPDDFATYYCQQYTSYWTFGQGTKVEIK
notes: also called Ab 850; Antibody Number 850
As to B8, in assay [1], the Kd is 123 nM. In addition, the binding result in assay [2] is on record as “no binding (tested: 100 nM antigen)”. In addition, in assay [3], the “Neutralization IC50 (RSV subtype A)” value is greater than 25 µg/mL.

B9: ADI-41544 (antibody, V domains shown)
VH: QVQLVQSGAEVKKPGESLKISCKGSGYSFTNYWIGWVRQMPGKGLEWMGIIFPADSDTRYSPSFQGQVTISADKSVSTAYLQWTSLKASDTAIYYCARLGVAAAGGYWGQGTLVTVSS
VL: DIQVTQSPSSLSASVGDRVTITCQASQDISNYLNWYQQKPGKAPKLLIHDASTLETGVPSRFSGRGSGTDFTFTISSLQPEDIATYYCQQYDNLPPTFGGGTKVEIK
notes: also called Ab 816; Antibody Number 816
On to B9, for which the Kd in assay [6] came to 0.805 nM. Also, the binding result in assay [7] is recorded as “no binding”. Besides, the “Neutralization IC50 (RSV subtype A)” value in assay [8] is greater than 25 µg/mL.

B10: ADI-41610 (antibody, V domains shown)
VH: EVQLLESGGGVVQPGRSLRLSCAASELSFRNYGMHWVRQAPGKGLEWVAVISYDGNDKYYADSVKGRFTISRDNSKKTLYLQMDSLRAEDTAVYYCAKEGAYCGGDCFSSWGQGTLVTVSS
VL: GIQLTQSPSSLSASVGDRVTITCRASQSSSSYLNWYQQKPGKAPKLLIYAASSLQSGVPSRFSGSGSGTDFTLTISSLQPEDFATYYCQQSYSFGGGTKVEIK
notes: also called Ab 884; Antibody Number 884
In the case of B10, the Kd in assay [1] was 0.978 nM. Further, in assay [2], the binding result is reported as “no binding (tested: 100 nM antigen)”. The “Neutralization IC50 (RSV subtype A)” value in assay [3] is greater than 25 µg/mL.

B11: ADI-41546 (antibody, V domains shown)
VH: QVQLVQSGAEVKKPGESLKISCKGSGYSFTNYWIGWVRQMPGKGLEWMGIIFSADSDTRYSPSFQGQVTISADKSISTAYLQWSSLKASDTAMYYCARQWGITGDAFDIWGQGTMVTVSS
VL: DIQVTQSPSFLSASVGDRVTITCRASQGISGYLAWYQQKPGKAPKLLIYAASTLQSGVPSRFSGSGSGTEFTLTISSLQPEDFATYYCQQLNSYPYTFGQGTKVEIK
Take B11: binding in assay [6] was characterised by a dissociation constant (Kd) of 1.08 nM. The binding result in assay [7] is on record as “no binding”. Moreover, the “Neutralization IC50 (RSV subtype A)” value in assay [8] was greater than 25 µg/mL.

B12: ADI-41562 (antibody, V domains shown)
VH: QVQLVQSGAEVKKPGASVRVSCKTSGYAFSKYGISWVRQAPGQGLEWIGWISAYNENTHFSHKFLGRVTMTTDTSTGIAYMDLRSLKSDDTAVYYCARDWYSLGSDWYFGPMFDYWGQGTLVTVSS
VL: EIVLTQSPDTLSVSPGERATLSCRASQSVTTNLAWYQQKPGHAPRLLIYGASTRATGIPARFSGSGSGTEFTLTISSLQSEDFAIYYCQQYTNWPRTFGQGTKVEIK
notes: also called Ab 842; Antibody Number 842
For B12, in assay [1], the Kd was 0.676 nM. Moreover, the binding result in assay [2] is reported as “no binding (tested: 100 nM antigen)”. For the same molecule, the “Neutralization IC50 (RSV subtype A)” value in assay [3] was greater than 25 µg/mL.

B13: ADI-41582 (antibody, V domains shown)
VH: EVQLVESGPGLVKPSQTLSLTCTVSGGPISSGVYYWSWIRQHPGKGLESIGYIYYSGSTHYNPSLKTRVTISLDTSKNQFSLKLSSVTAADTAVYYCARGCSGGSCYLYAFDIWGQGTTVTVSS
VL: QPVLTQPPSVSVAPGQTARITCGGNNIGTKSVHWYQQKPGQAPLLVVYDDSDRPSGIPERFSGSNSGNTATLTISRVEAGDEADFYCQVWDYATDHVVFGGGTKLTVL
notes: also called Ab 856; Antibody Number 856
Turning to B13, the Kd in assay [1] is 0.911 nM. In assay [2], the binding result is recorded as “no binding (tested: 100 nM antigen)”. Also, the “Neutralization IC50 (RSV subtype A)” value in assay [3] was greater than 25 µg/mL.
